Assay results published in US20220073599A1 (Hoffmann-La Roche, published 2022).
Changes are numbered by the printed parent chain. One block for each binder: values may come before it.

Key:
human Ang2-RBD [1] = molecular target: T1, human Ang2-RBD (human, UniProt O15123 275-496, limits assumed); assay: SPR, Fab captured by anti-Fab antibody, Ang2-RBD injected, 25 C, 1:1 fit
T1 construct: also called Human ANG2 (SPR); Angiopoietin 2-RBD
T1 sequence: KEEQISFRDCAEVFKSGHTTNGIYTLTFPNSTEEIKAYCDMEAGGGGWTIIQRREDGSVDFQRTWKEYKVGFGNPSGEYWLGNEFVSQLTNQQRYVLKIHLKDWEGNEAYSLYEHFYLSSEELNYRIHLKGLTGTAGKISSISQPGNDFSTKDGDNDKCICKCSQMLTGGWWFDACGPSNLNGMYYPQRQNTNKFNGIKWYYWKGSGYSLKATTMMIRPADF
Procedure: (§1) An anti-Fab capturing antibody (GE Healthcare 28958325) was immobilized to a Series S Sensor Chip C1 (GE Healthcare BR100535) using standard amine coupling chemistry resulting in a surface density of approximately 800 resonance units (RU). As running and dilution buffer, HBS-P+ (10 mM HEPES, 150 mM NaCl pH 7.4, 0.05% Surfactant P20) was used, the temperature of measurement was 25° C. The tested antibody was captured by injecting a 50 nM solution for 60 sec at a flow of 5 μl/min. Association was measured by injection of human Ang2-RBD in various concentrations in solution for 180 sec at a flow of 30 μl/min (0.07 nM-50 nM, 1:3 dilution). The dissociation phase was monitored for up to 900 sec and triggered by switching from the sample solution to running buffer at a flow rate of 30 μl/min. The surface was regenerated by injection of 10 mM Glycine pH 2.1 for 60 s at a flow rate of 30 μl/min. Bulk refractive index differences were corrected by subtracting blank injections and by subtracting the response obtained from the reference flow cell without captured tested antibody. Curve fitting was performed using the 1:1 Langmuir binding model within the Biacore® evaluation software.
(§2) Binding kinetics to human VEGF-A and human ANG2 for the candidate antibodies were assessed as described above using the indicated Fab fragments (amino acid sequence as illustrated in Table 4).

human VEGFA-121 = molecular target: T2, human VEGFA-121 (human, UniProt P15692 181-395); assay: SPR, Fab captured by anti-Fab antibody; 4) Ang2-RBD first, then VEGFA-121 (binding of VEGFA-121 in the presence of Ang2); final combined signal of both antigens
T2 construct: sources differ (in-house, R&D, Peprotech); also called hVEGF-A121
T2 sequence: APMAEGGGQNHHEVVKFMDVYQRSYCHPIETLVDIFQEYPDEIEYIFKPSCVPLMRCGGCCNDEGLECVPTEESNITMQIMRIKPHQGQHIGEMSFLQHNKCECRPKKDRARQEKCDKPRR
Procedure: The bispecific Fab was captured by injecting a 6.5 μg/ml solution for 60 sec at a flow of 5 μl/min. Independent binding of each ligand to the bispecific Fab was analysed by determining the active binding capacity for each ligand, either added sequentially or simultaneously (flow of 10 μl/min): [0359] […] [0360] 2) Injection of human Ang2 with a concentration of 5 μg/ml for 60 sec (identifies single binding of the antigen) [0361] […] [0362] […] [0363]
Independent binding of candidate antibodies to human VEGF-A and human ANG2 was analysed by SPR as described above in the “Materials & general methods” section.

human Ang2-RBD [2] = molecular target: T1, human Ang2-RBD; assay: SPR, Fab captured by anti-Fab antibody, Ang2-RBD injected, 25 C
Procedure: as §1, §2

human VEGFA-121-His [3] = molecular target: T3, human VEGFA-121-His (human, UniProt P15692 181-395); assay: SPR, VEGF-A121-His captured by anti-His antibody, Fab injected, single cycle kinetics; marked outside of Biacore specification
T3 construct: Prepared in-house; not shown: His tag
T3 sequence: T2 sequence
Procedure: An anti-His capturing antibody (GE Healthcare 28995056) was immobilized to a Series S Sensor Chip C1 (GE Healthcare BR100535) using standard amine coupling chemistry resulting in a surface density of approximately 600 resonance units (RU). As running and dilution buffer, HBS-P+ (10 mM HEPES, 150 mM NaCl pH 7.4, 0.05% Surfactant P20) was used. […] A dilution series of the tested antibody (3.7-300 nM, 1:3 dilution) was successively injected for 60 s each, dissociation was monitored for 3600 s at a flow rate of 30 μl/min (single cycle kinetics). The surface was regenerated by injecting 10 mM Glycine pH 1.5 for 60 s at a flow of 5 μl/min. […] Curve fitting was performed using the 1:1 Langmuir binding model within the Biacore® evaluation software.
as §2

human VEGFA-121-His [4] = molecular target: T3, human VEGFA-121-His; assay: KinExA equilibrium titration in solution, constant VEGFA-121-His
Procedure: All KinExA® experiments were performed at room temperature (RT) using PBS pH 7.4 with 0.01% BSA and 0.01% Tween® 20 (BioRad, #161-0781) as running buffer. […] A flow rate of 0.25 ml/min was used. […] Antigen-antibody complexes were incubated at RT for at least 8 h to allow equilibrium to be reached. […] Each sample was measured in duplicates for all equilibrium experiments. The KD was obtained from non-linear regression analysis of the data using a one-site homogeneous binding model contained within the KinExA® software (Version 4.0.11) using the “standard analysis” method. The software calculates the KD and determines the 95% confidence interval by fitting the data points to a theoretical KD curve. The 95% confidence interval is given as KD low and KD high.
as §2

Kd (human Ang2-RBD [1]): 0.019 nM
koff (human Ang2-RBD [1]): 0.000106 s⁻¹
kon (human Ang2-RBD [1]): 5.51e+06 M⁻¹ s⁻¹
Signal [%] (human VEGFA-121): 90%
t1/2 (human Ang2-RBD [2]): 1.82 h
Kd (human VEGFA-121-His [3]): 0.011 nM
koff (human VEGFA-121-His [3]): 8.27e-06 s⁻¹
Kd (human VEGFA-121-His [4]): 0.0114 nM
B1: bispecific anti-VEGF-A/anti-ANG2 Fab fragment P1AA0902 (Fab, V domains shown)
VH: DDHLVESGGGLVKPGGSLRLSCATADFFEYDDMSWVRQAPGKGLEWVGSISGRGDHKYLNTKFIGRFTISRDDSKNTLYLQMNSLRAEDTAVYYCARDVGFFDWWGQGTLVTVSS
VL: AIYMHQEPSSLSASVGDRVTITCHGSYWLNSELAWYQQKPGKAPKLLIFDGDFKVFDVPSRFSGSGSHEDYTLTISSLQPEDFATYYCQQYRYHPYTFGHGTKVEIKR
notes: Bispecific Fab with two paratopes in one VH/VL pair

Kd (human Ang2-RBD [1]): 4.55 nM
koff (human Ang2-RBD [1]): 0.032 s⁻¹
kon (human Ang2-RBD [1]): 7.03e+06 M⁻¹ s⁻¹
Signal [%] (human VEGFA-121): 91%
t1/2 (human Ang2-RBD [2]): 0.00667 h
Kd (human VEGFA-121-His [3]): 0.003 nM
koff (human VEGFA-121-His [3]): 4.53e-06 s⁻¹
Kd (human VEGFA-121-His [4]): 0.0109 nM
B2: bispecific anti-VEGF-A/anti-ANG2 Fab fragment P1AA8906 (Fab, V domains shown)
VH: DFQLVESGGGLVKPGGSLRLSCAASYEFEYDDMSWVRQAPGKGLEWVGSISPKGGSTYYNTKFIGRFTISRDNSKNTLYLQMNSLRAEDTAVYYCARDVGFFDMWGQGTLVTVSS
VL: B1 VL with N30S, S31N, E32Y, G51A, D52R, F53W, K54L, F56H, D57G
notes: Bispecific Fab with two paratopes in one VH/VL pair (DutaFab); CH1 and Ckappa

Kd (human Ang2-RBD [1]): 0.008 nM
koff (human Ang2-RBD [1]): 5.78e-05 s⁻¹
kon (human Ang2-RBD [1]): 7.43e+06 M⁻¹ s⁻¹
Signal [%] (human VEGFA-121): 92%
t1/2 (human Ang2-RBD [2]): 3.33 h
Kd (human VEGFA-121-His [3]): 0.008 nM
Kd (human VEGFA-121-His [4]): 0.00385 nM
B3: bispecific anti-VEGF-A/anti-ANG2 Fab fragment P1AD9820 (Fab, V domains shown)
VH: B1 VH with D1S, D2E, G52P, R53K
VL: B1 VL with L33V, F56Y, D57E
notes: Bispecific Fab with two paratopes in one VH/VL pair; also called P1AD9820 Fab
